Assay results published in patent US20230235075A1 (DYNAMICURE BIOTECHNOLOGY, published 2023).

T1: Human CD93 on the cell surface (human CD93 expressing CHO cells; HUVEC, U937 and KG1a cells) (human, UniProt Q9NPY3 22-652)
T1 construct: whole, on cells; also called hCD93 CHO cells; CHO-hCD93
T1 sequence (looked up): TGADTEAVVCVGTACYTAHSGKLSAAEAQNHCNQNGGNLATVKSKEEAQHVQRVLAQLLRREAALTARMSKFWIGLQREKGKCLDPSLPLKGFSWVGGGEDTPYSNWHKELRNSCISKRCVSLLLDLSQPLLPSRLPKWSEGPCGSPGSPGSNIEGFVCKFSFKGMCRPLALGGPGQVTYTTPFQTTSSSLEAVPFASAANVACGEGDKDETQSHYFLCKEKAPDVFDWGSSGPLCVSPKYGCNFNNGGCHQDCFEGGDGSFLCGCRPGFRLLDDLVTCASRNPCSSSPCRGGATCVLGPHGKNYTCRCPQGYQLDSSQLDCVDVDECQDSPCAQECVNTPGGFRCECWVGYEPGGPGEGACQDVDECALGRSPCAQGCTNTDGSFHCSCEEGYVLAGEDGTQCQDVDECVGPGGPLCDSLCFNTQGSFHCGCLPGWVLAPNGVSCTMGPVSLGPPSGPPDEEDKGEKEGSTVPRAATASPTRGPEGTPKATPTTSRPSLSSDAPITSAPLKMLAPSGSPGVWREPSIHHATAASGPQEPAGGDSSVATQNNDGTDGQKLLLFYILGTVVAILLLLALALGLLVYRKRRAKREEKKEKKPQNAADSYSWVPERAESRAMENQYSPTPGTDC

T2: Human CD93 recombinant protein (Sino Biological Inc, Catalog #12589-H08H) (human, UniProt Q9NPY3 22-580, biotinylated with EZ-LINK NHS-PEG4 biotin in the Octet assays)
T2 construct: also called hCD93; His-tagged human CD93
T2 sequence (looked up): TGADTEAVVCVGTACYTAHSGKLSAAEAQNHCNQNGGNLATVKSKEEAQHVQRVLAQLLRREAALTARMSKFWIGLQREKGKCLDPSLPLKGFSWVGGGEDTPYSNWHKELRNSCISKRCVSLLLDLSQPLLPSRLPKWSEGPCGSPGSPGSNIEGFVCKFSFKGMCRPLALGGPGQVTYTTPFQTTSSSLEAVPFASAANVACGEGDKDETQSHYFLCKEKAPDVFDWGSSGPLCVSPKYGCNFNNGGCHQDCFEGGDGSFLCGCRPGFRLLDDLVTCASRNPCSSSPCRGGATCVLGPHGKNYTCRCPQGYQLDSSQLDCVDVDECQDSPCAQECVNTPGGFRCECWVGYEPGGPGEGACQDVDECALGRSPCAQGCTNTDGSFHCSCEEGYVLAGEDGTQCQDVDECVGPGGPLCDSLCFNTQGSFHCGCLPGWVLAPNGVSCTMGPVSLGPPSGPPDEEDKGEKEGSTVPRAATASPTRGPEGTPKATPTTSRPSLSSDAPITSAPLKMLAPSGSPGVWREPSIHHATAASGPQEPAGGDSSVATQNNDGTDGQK

B1: 16E4-hIgG1 (antibody, V domains shown)
VH: QVQLQQPGAELVKPGASVKLSCKASGYTFTSYWMHWVKQRPGQGLEWIGEIDPSASYTYYNQKFKGKATLTVDKSSSTAYMQLSSLTSEDSAVYYCARSVYYGNKYFDVWGAGTTVTVSS
VL: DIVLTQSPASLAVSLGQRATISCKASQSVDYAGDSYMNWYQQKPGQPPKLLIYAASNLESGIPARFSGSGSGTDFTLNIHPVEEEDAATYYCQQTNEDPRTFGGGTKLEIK
notes: the same paragraph also calls it 'humanized'; also called recombinant 16E4; recombinant chimeric 16E4
B2: Humanized 17B10 (VH3VL3, i.e., H3L3) (antibody, mouse IgG1, V domains shown)
VH: QVQLVQSGPEVKKPGESLKISCKASGYAFSSYWLNWVRQMPGKGLEWMGRIYPGDGDTDYNGKFKGQVTISADKSSGTAYLQLSSLKASDTAVYFCVRGDGYWAMDYWGQGTLVTVSS
VL: DIVMTQSPDSLAVSLGERATINCRFSKSLLHSNGITYLYWYQQKPGQPPKLLIYQMSNLASGVPDRFSGSGSGTDFTLTISSLQAEDVAVYYCAQNLELPWTFGGGTKLEIK
notes: also called h17B10-H3L3; humanized 17B10-mFc
B3: 10B1 (antibody, V domains shown)
VH: QVQLKQSGPGLVQPSQSLSITCTVSDFSLSSFGVNWVRQPPGKGLEWLGVIWSGGSTDYNVAFISRLSISKDNSKSQVFFKMNNLQADDTAIYYCARNWRYDGYFYAMDYWGQGTSVTVSS
VL: DIVMTQSQKFMSTSTGDRVSVTCKASQNVGTNVAWYQQKPGQSPKALIYSASYRFIGVPDRFTGSGSGTDFTLTITNVQSEDLAEYFCQQYNRNPITFGSGTKLEIK
notes: Mouse hybridoma monoclonal antibody; also called 10B1 mAb
B4: 17B10 (hybridoma) (antibody, V domains shown)
VH: QVQLQQSGPELVKPGASVKISCKASGYAFSSYWLNWVKQRPGKGLEWFGRIYPGDGDTDYNGKFKGKATLTADKSSSTAYMQLRSLTSEDSAVYFCVRGDGYWAMDYWGQGTSVTVSS
VL: DIVMTQAAFSNPVTLGTSASISCRFSKSLLHSNGITYLYWYLQKPGQSPQLLIYQMSNLASGVPDRFSSSGSGTDFTLRISRVEAEDVGVYYCAQNLELPWTFGGGTKLEIK
notes: Mouse hybridoma monoclonal antibody, purified over Protein G
B5: recombinant parental 17B10-hFc (antibody, human IgG1, V domains shown)
VH: B4 VH
VL: B4 VL
notes: also called 17B10-hIgG1; recombinant parental 17B10 with the human Fc
B6: Recombinant parental 17B10 (human CH1 domain, mouse IgG1 CH2 and CH3 Fc domains) (antibody, V domains shown)
VH: B4 VH
VL: B4 VL
B7: 7F3-hIgG1 (antibody, V domains shown)
VH: QVQLQQSGADLVRPGASVKLSCKASGYTFTDYEMHWVKQTPVYGLEWIGGIDPETGDTAYNQNFKGKATLTADKSSSAAYMELRSLTSEDSAVYYCTNYGNLYYYAMDYWGQGTSVTVSS
VL: ENVLTQSPAIMSASPGEKVTMTCRASSSVSSSYLHWYQQKSGASPKLWIYSTSNLAFGVPARFSGSGSGTSYSLTISSVEAEDAATYYCQQYSGYPLTFGSGTKLEIK
notes: the same paragraph also calls it 'humanized'; also called recombinant 7F3 antibody; recombinant chimeric 7F3
B8: 16B6 (antibody, V domains shown)
VH: QVQLQQSGPELVKPGASVKISCKASGYAFSRSWMNWVKQRPGKGLEWIGWIYPGDGDTNYNGKFKGKATLTADKSSSTAYMQLSSLTSEDSAAYFCARSATLPYWYFDVWGAGTTVTVSS
VL: DIKMTQSPSSMYASLGERVTITCKASQDIKSYLSWYQQKPWKSPKTLIYYATNLADGVPSRFSGSGSGQDYSLTISSLGSDDTATYYCLQHVESPWTFGGGTKLEIK
notes: Mouse hybridoma monoclonal antibody

Legend:
[1] = target: T1, Human CD93 on the cell surface (human …); test: FACS, human CD93 expressing CHO cells, serially diluted antibody
Protocol: Binding of anti-CD93 antibodies 7F3 and 16E4 to cell surface expressing human CD93 CHO cells was determined by fluorescence activated cell sorting (FACS) assay. Human CD93 expressing CHO cells were detached by incubation with TrypLE reagents (Thermo Fisher), which preserves the integrity of CD93 on the cell surface. Then the cells were incubated with serially diluted anti-CD93 antibodies for 30 minutes in 4° C. After washing by FACS buffer, the cells were incubated with Alexa Fluor 647 conjugated anti-human IgG (Jackson ImmunoResearch) for 30 minutes in 4° C. After washing by FACS buffer twice, the samples were acquired in NovoCyte Flow Cytometer and analyzed by NovoExpress software.

[2] = target: T1, Human CD93 on the cell surface (human …); test: FACS, CHO cells overexpressing human CD93
[3] = target: T2, Human CD93 recombinant protein (Sino …); test: ELISA, His-tagged human CD93 coated at 1 µg/mL
Protocol: 17B10 antibody produced by hybridoma (17B10-Hyb in FIG. 33) was compared to recombinant parental 17B10-hFc (17B10-hIgG1 in FIG. 33) and humanized 17B10-mFc (h17B10-H3L3 in FIG. 33) to determine the binding to human CD93. His-tagged human CD93 was coated onto a 96 well plate at 1 μg/mL in 1×PBS overnight at 4° C. The plate was washed with ELISA wash buffer (Boston BioProduct, Inc.) and the wells were blocked with ELISA blocking buffer for 1 hour at 37° C. Purified 17B10 antibodies were serially diluted in ELISA blocking buffer (Boston BioProduct, Inc.) and incubated on the receptor for 1 hour at 37° C. The plate was washed with ELISA wash Buffer. HRP conjugated Anti-mouse Fc was diluted in ELISA blocking buffer and added to the wells containing the hybridoma produced 17B10. HRP conjugated anti-human Fc was added to the well containing the recombinant 17B10 antibodies for 1 hour at 37° C. The plate was washed with ELISA wash Buffer. HRP substrate was added for indirect detection of the antibodies binding to CD93.

[4] = target: T1, Human CD93 on the cell surface (human …); test: summary table, column 'Binding' (assay not given)
[5] = target: T2, Human CD93 recombinant protein (Sino …); test: BLI (Octet QKe), biotinylated CD93 on streptavidin sensors
[6] = target: T1, Human CD93 on the cell surface (human …); test: flow cytometry, primary HUVEC cells, with and without human serum
Protocol: Recombinant parental anti-CD93 antibodies were evaluated for their ability to bind to HUVEC cells in the presence or absence of human serum. The 16E4, 7F3, 16A1, and 17B10 sequences obtained from the hybridoma cells were expressed recombinantly with a human CH1 domain and mouse IgG1 CH2 and CH3 Fc domains. Antibodies were purified using Protein G Sepharose. The resulting antibodies were tested for its binding capacity to a variety of cells that express CD93. […] Cells were quenched with media then counted. Cells were resuspended in FACS buffer (ice cold PBS with 0.5% BSA) and human serum was added to 20% (10% final volume) and put on ice for approximately 20 minutes. 5×10⁴ cells were seeded per well in 100 μL media and incubated with serial diluted anti-CD93 antibodies in 100 μL on ice for 2 hours. Cells were then washed by spinning cells at 1200 rpm for 5 min. Media was discarded and cells were resuspended in 200 μL ice cold FACS buffer. The wash step was repeated and cells were resuspended in 100 μL of secondary antibody, AlexaFluor647 conjugated anti-human IgG or anti-mouse IgG antibodies (Jackson ImmunoResearch), diluted 1:500 in FACS buffer. Plates were blocked from light and incubated 1 hour at 4° C. […] Samples were stored at 4° C. covered in foil, then were acquired in NovoCyte Flow Cytometer and analyzed by NovoExpress software.

[7] = target: T2, Human CD93 recombinant protein (Sino …); test: Octet epitope binning on biotinylated human CD93, antibody 10 µg/ml
Protocol: Anti-CD93 antibody epitope bins were determined using Octet QKe (Fortebio). Human CD93 recombinant protein (Sino Biological Inc, Catalog #12589-H08H) were biotinylated using EZ-LINK NHS-PEG4 biotin (Thermo Fisher Scientific). Streptavidin biosensors tips (Fortebio) were used to capture biotinylated human CD93 protein (300 seconds in 5 μg/ml). The baseline was stabilized for 60 seconds in 1× kinetics buffer (Fortebio) before primary anti-CD93 antibodies (10 μg/ml) were allowed to associate for 300 seconds with captured protein. A panel of secondary anti-CD93 antibodies (10 μg/ml) were then allowed to associate with the antigen and primary antibody complex for additional 300 seconds. Signals were recorded for each binding event and data analysis was performed on ForteBio Data Analysis HT 11.1 software.

| Binder | binding result [3] | binding result [4] | further results |
| --- | --- | --- | --- |
| B1 | – | – | EC50 [1]: 0.24 nM |
| B2 | binds | – | binding result [2]: binds |
| B3 | – | binds | binding result [5]: binds |
| B4 | binds | binds | – |
| B5 | binds | – | – |
| B6 | – | – | binding result [6]: binds |
| B7 | – | – | EC50 [1]: 0.4 nM |
| B8 | – | binds | binding result [7]: binds |
